The term stoichiometry N denotes a count of units in the complex or per binding partner.

This assay addresses globupain zymogen (wild-type, signal-free, C-terminal 6xHis) (unclassified Archaeoglobus species (metagenome, Soria Moria hydrothermal vent field)). The experiment in a line: SEC + AUC.

Turning to “globupain zymogen (wild-type, signal-free, C-terminal 6xHis) (enzyme)”, the stoichiometry N was 2.

For the origin of these results see publication PMC10104074.
